From article PMC4109901, “Functional EF-Hands in Neuronal Calcium Sensor GCAP2 Determine Its Phosphorylation State and Subcellular Distribution In Vivo, and Are Essential for Photoreceptor Cell Integrity” (PLoS Genetics, 2014) come the findings set out here.

Sequences and labels used below:
B1: recombinant bGCAP2, mock-treated (unphosphorylated) (natural protein, bovine, UniProt P51177 1-204, looked up)
chain: MGQQFSWEEAEENGAVGAADAAQLQEWYKKFLEECPSGTLFMHEFKRFFKVPDNEEATQYVEAMFRAFDTNGDNTIDFLEYVAALNLVLRGTLEHKLKWTFKIYDKDRNGCIDRQELLDIVESIYKLKKACSVEVEAEQQGKLLTPEEVVDRIFLLVDENGDGQLSLNEFVEGARRDKWVMKMLQMDLNPSSWISQQRRKSAMF
notes: Cross-linked to magnetic beads for the pull-down; also called mock bGCAP2; recombinant wildtype bGCAP2
B2: recombinant phosphorylated bGCAP2 (natural protein, bovine, UniProt P51177 1-204, looked up)
chain: MGQQFSWEEAEENGAVGAADAAQLQEWYKKFLEECPSGTLFMHEFKRFFKVPDNEEATQYVEAMFRAFDTNGDNTIDFLEYVAALNLVLRGTLEHKLKWTFKIYDKDRNGCIDRQELLDIVESIYKLKKACSVEVEAEQQGKLLTPEEVVDRIFLLVDENGDGQLSLNEFVEGARRDKWVMKMLQMDLNPSSWISQQRRKSAMF
modifications: phosphorylated in vitro by PKG; Ser201 named as the site
notes: Cross-linked to magnetic beads for the pull-down; also called P-GCAP2
B3: recombinant phosphorylated bEF^−GCAP2 (natural protein, bovine, UniProt P51177 1-204, looked up)
chain: MGQQFSWEEAEENGAVGAADAAQLQEWYKKFLEECPSGTLFMHEFKRFFKVPDNEEATQYVEAMFRAFDTNGDNTIDFLQYVAALNLVLRGTLEHKLKWTFKIYDKDRNGCIDRQQLLDIVESIYKLKKACSVEVEAEQQGKLLTPEEVVDRIFLLVNENGDGQLSLNEFVEGARRDKWVMKMLQMDLNPSSWISQQRRKSAMF
modifications: phosphorylated in vitro by PKG; Ser201 named as the site
notes: Cross-linked to magnetic beads for the pull-down
B4: recombinant bEF^−GCAP2, mock-treated (unphosphorylated) (natural protein, bovine, UniProt P51177 1-204, looked up)
chain: MGQQFSWEEAEENGAVGAADAAQLQEWYKKFLEECPSGTLFMHEFKRFFKVPDNEEATQYVEAMFRAFDTNGDNTIDFLQYVAALNLVLRGTLEHKLKWTFKIYDKDRNGCIDRQQLLDIVESIYKLKKACSVEVEAEQQGKLLTPEEVVDRIFLLVNENGDGQLSLNEFVEGARRDKWVMKMLQMDLNPSSWISQQRRKSAMF
notes: Cross-linked to magnetic beads for the pull-down; also called mock bEF^−GCAP2; unphosphorylated bEF^−GCAP2

The data set concerns the molecule itself. Nature of the data set: SDS-PAGE and immunoblot; in vitro phosphorylation reactions (with or without cGMP, in EGTA) of purified recombinant GCAP2 resolved by 15% SDS-PAGE and immunostained for GCAP2; bands above the 25 kDa monomer. On the technique in general: In western blotting, separated proteins are transferred to a membrane and probed.
Regarding B1, the binding result is listed as “binds”.

For B2, the binding result was “binds”.

As for B3, the binding result is listed as “binds”.

Consider B4, for which the binding result was “binds”.
